Laboratory results taken from paper PMC10693564 (Nature Communications, 2023).

Biological target: T1, UBE1L (1-1012aa) (UniProt P41226 1-1012)
T1 construct: In the cryo-EM sample its active-site cysteine was disulfide-linked to Cys86 of UBE2L6; also called UBA7; not shown: GST, N-terminal, cleaved
T1 sequence (looked up): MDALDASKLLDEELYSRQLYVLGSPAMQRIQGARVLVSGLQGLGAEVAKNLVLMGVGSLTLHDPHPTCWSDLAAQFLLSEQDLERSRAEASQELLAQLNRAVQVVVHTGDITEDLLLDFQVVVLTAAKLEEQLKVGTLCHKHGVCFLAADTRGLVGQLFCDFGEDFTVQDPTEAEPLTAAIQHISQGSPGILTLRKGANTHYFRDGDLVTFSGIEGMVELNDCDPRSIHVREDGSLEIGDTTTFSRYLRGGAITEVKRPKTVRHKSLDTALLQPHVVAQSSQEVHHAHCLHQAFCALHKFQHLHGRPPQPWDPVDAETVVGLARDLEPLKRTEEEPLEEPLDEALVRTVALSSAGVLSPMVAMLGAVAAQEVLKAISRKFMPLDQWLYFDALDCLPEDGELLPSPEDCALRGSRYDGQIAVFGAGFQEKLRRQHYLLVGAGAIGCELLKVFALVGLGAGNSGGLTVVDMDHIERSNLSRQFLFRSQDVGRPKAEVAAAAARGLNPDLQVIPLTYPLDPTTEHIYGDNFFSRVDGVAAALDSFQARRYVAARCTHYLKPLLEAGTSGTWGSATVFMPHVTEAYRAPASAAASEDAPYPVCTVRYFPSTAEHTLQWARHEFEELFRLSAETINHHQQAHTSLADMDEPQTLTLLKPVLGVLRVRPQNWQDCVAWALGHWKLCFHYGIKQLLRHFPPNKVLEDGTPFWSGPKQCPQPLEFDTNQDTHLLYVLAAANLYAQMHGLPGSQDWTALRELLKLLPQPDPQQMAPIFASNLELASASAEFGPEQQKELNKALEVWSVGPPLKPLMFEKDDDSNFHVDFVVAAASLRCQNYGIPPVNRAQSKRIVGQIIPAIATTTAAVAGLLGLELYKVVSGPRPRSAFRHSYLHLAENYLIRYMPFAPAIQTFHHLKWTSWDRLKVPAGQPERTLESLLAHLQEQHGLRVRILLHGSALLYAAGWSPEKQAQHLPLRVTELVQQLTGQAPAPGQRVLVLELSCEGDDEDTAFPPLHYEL
Test: cryo-EM structure
Conditions: both partners purified

- binding result: binds
B1: UBE2L6^C86only (enzyme)
chain: MMASMRVVKELEDLQKKPPPYLRNLSSDDANVLVWHALLLPDQPPYHLKAFNLRISFPPEYPFKPPMIKFTTKIYHPNVDENGQICLPIISSENWKPSTKTSQVLEALNVLVNRPNIREPLRMDLADLLTQNPELFRKNAEEFTLRFGVDRPS
notes: non-catalytic cysteines mutated to serine; also called UBE2L6(C98S/C102S); UbcH8; not shown: 6xHis, N-terminal, cleaved; GST, N-terminal, cleaved
